The target of the first assay is T1, HLA-B*0702 (human).
T1 construct: also called B7 supertype prototype molecule
The experiment in a line: inhibition of 125I standard peptide binding to purified HLA.
VPLQRLRIV (also called Her2/neu.94) [HER2/neu peptide, position 94, 9 amino acids]: the relative binding ratio is 0.0077 ratio to standard peptide.

Regarding WPDSLPDL (also called Her2/neu.415) [HER2/neu peptide, position 415, 8 amino acids], the relative binding ratio was 0.02 ratio to standard peptide.

Consider WPDSLPDLSV (also called Her2/neu.415) [HER2/neu peptide, position 415, 10 amino acids], for which the relative binding ratio was 0.0044 ratio to standard peptide.

In a further assay the target is HLA-B*0702 (human). Kind of assay: competition with 125I-labelled probe peptide for purified HLA, gel filtration. For orientation: Size exclusion chromatography separates by hydrodynamic size, large species first.
For the molecule IPAREIPDL [HER2/neu peptide, position 926, 9 amino acids], the relative binding ratio was 0.0006 ratio (IC50 of standard / IC50 of test peptide).

Turning to HPPPAFSPA [HER2/neu peptide, position 1208, 9 amino acids], the relative binding ratio was 0.0093 ratio (IC50 of standard / IC50 of test peptide).

For the molecule DPQRFVVI [HER2/neu peptide, position 982, 8 amino acids], the relative binding ratio was < 0.0006 ratio (IC50 of standard / IC50 of test peptide).

In the case of LPSETDGYV [HER2/neu peptide, position 1120, 9 amino acids], the relative binding ratio is 0.0002 ratio (IC50 of standard / IC50 of test peptide).

For the molecule APLTCSPQPEY [HER2/neu peptide, position 1129, 11 amino acids], the relative binding ratio was < 0.0002 ratio (IC50 of standard / IC50 of test peptide).

Turning to HPECQPQNGSV [HER2/neu peptide, position 564, 11 amino acids], the relative binding ratio was < 0.0002 ratio (IC50 of standard / IC50 of test peptide).

For GPKHSDCLACL [HER2/neu peptide, position 246, 11 amino acids], the relative binding ratio is 0.0006 ratio (IC50 of standard / IC50 of test peptide).

For the molecule LPAARPAGATL [HER2/neu peptide, position 1157, 11 amino acids], the relative binding ratio was 0.014 ratio (IC50 of standard / IC50 of test peptide).

For CPLHNQEV [HER2/neu peptide, position 315, 8 amino acids], the relative binding ratio is < 0.0006 ratio (IC50 of standard / IC50 of test peptide).

Turning to LPTDCCHEQCA [HER2/neu peptide, position 231, 11 amino acids], the relative binding ratio was < 0.0003 ratio (IC50 of standard / IC50 of test peptide).

With APSEGAGSDV [HER2/neu peptide, position 1076, 10 amino acids], the relative binding ratio was 0.0002 ratio (IC50 of standard / IC50 of test peptide).

As to APGAGGMV [HER2/neu peptide, position 1036, 8 amino acids], the relative binding ratio was 0.0063 ratio (IC50 of standard / IC50 of test peptide).

Take EPLTPSGAM [HER2/neu peptide, position 698, 9 amino acids]: the relative binding ratio was 0.011 ratio (IC50 of standard / IC50 of test peptide).

As to GPGPTQCV [HER2/neu peptide, position 522, 8 amino acids], the relative binding ratio was < 0.0006 ratio (IC50 of standard / IC50 of test peptide).

As to LPASPETHLDM [HER2/neu peptide, position 35, 11 amino acids], the relative binding ratio is < 0.0002 ratio (IC50 of standard / IC50 of test peptide).

CPDPAPGA [HER2/neu peptide, position 1032, 8 amino acids]: the relative binding ratio is < 0.0002 ratio (IC50 of standard / IC50 of test peptide).

As for IPDLLEKGERL [HER2/neu peptide, position 931, 11 amino acids], the relative binding ratio was < 0.0002 ratio (IC50 of standard / IC50 of test peptide).

For the molecule CPYNYLSTDV [HER2/neu peptide, position 299, 10 amino acids], the relative binding ratio is 0.0016 ratio (IC50 of standard / IC50 of test peptide).

On to CPSGVKPDL [HER2/neu peptide, position 600, 9 amino acids], for which the relative binding ratio was 0.014 ratio (IC50 of standard / IC50 of test peptide).

Consider APLQPEQLQV [HER2/neu peptide, position 390, 10 amino acids], for which the relative binding ratio was 0.0001 ratio (IC50 of standard / IC50 of test peptide).

Take GPASPLDSTFY [HER2/neu peptide, position 995, 11 amino acids]: the relative binding ratio is 0.0036 ratio (IC50 of standard / IC50 of test peptide).

For the molecule KPDLSYMPIW [HER2/neu peptide, position 605, 10 amino acids], the relative binding ratio was 0.0001 ratio (IC50 of standard / IC50 of test peptide).

Consider IPDGENVKIPV [HER2/neu peptide, position 740, 11 amino acids], for which the relative binding ratio is 0.0023 ratio (IC50 of standard / IC50 of test peptide).

Take DPAPGAGGMV [HER2/neu peptide, position 1034, 10 amino acids]: the relative binding ratio was 0.0002 ratio (IC50 of standard / IC50 of test peptide).

With LPPGAASTQV [HER2/neu peptide, position 16, 10 amino acids], the relative binding ratio was 0.0002 ratio (IC50 of standard / IC50 of test peptide).

Consider LPASPETHL [HER2/neu peptide, position 35, 9 amino acids], for which the relative binding ratio is 0.0002 ratio (IC50 of standard / IC50 of test peptide).

Turning to KPDLSYMPI (also called Her2/neu.605) [HER2/neu peptide, position 605, 9 amino acids], the relative binding ratio is 0.072 ratio (IC50 of standard / IC50 of test peptide).

On to IPAREIPDLL [HER2/neu peptide, position 926, 10 amino acids], for which the relative binding ratio was 0.0004 ratio (IC50 of standard / IC50 of test peptide).

In the case of LPSETDGY [HER2/neu peptide, position 1120, 8 amino acids], the relative binding ratio was < 0.0006 ratio (IC50 of standard / IC50 of test peptide).

In the case of DPAPGAGGM [HER2/neu peptide, position 1034, 9 amino acids], the relative binding ratio was 0.0001 ratio (IC50 of standard / IC50 of test peptide).

Regarding DPSPLQRY [HER2/neu peptide, position 1105, 8 amino acids], the relative binding ratio is < 0.0006 ratio (IC50 of standard / IC50 of test peptide).

For the molecule GPLPAARPA [HER2/neu peptide, position 1155, 9 amino acids], the relative binding ratio was 0.09 ratio (IC50 of standard / IC50 of test peptide).

In the case of CPINCTHSCV [HER2/neu peptide, position 626, 10 amino acids], the relative binding ratio is 0.0002 ratio (IC50 of standard / IC50 of test peptide).

As to HPPPAFSPAF [HER2/neu peptide, position 1208, 10 amino acids], the relative binding ratio is 0.0018 ratio (IC50 of standard / IC50 of test peptide).

With LPSETDGYVA [HER2/neu peptide, position 1120, 10 amino acids], the relative binding ratio is 0.0001 ratio (IC50 of standard / IC50 of test peptide).

GPLPAARPAGA [HER2/neu peptide, position 1155, 11 amino acids]: the relative binding ratio is 0.016 ratio (IC50 of standard / IC50 of test peptide).

With CPAEQRASPL (also called Her2/neu.642) [HER2/neu peptide, position 642, 10 amino acids], the relative binding ratio is 0.15 ratio (IC50 of standard / IC50 of test peptide).

Take LPTHDPSPL [HER2/neu peptide, position 1101, 9 amino acids]: the relative binding ratio is 0.046 ratio (IC50 of standard / IC50 of test peptide).

With DPASNTAPL [HER2/neu peptide, position 384, 9 amino acids], the relative binding ratio is 0.0004 ratio (IC50 of standard / IC50 of test peptide).

Turning to KPCARVCY [HER2/neu peptide, position 336, 8 amino acids], the relative binding ratio is < 0.0006 ratio (IC50 of standard / IC50 of test peptide).

In the case of APLQPEQL [HER2/neu peptide, position 390, 8 amino acids], the relative binding ratio is < 0.0006 ratio (IC50 of standard / IC50 of test peptide).

GPTQCVNCSQF [HER2/neu peptide, position 524, 11 amino acids]: the relative binding ratio was 0.0005 ratio (IC50 of standard / IC50 of test peptide).

Turning to APLQPEQLQVF [HER2/neu peptide, position 390, 11 amino acids], the relative binding ratio is 0.0011 ratio (IC50 of standard / IC50 of test peptide).

With GPEADQCVA [HER2/neu peptide, position 578, 9 amino acids], the relative binding ratio is 0.0001 ratio (IC50 of standard / IC50 of test peptide).

Consider CPDPAPGAGGM [HER2/neu peptide, position 1032, 11 amino acids], for which the relative binding ratio was < 0.0002 ratio (IC50 of standard / IC50 of test peptide).

Regarding CPLHNQEVTA [HER2/neu peptide, position 315, 10 amino acids], the relative binding ratio is 0.0001 ratio (IC50 of standard / IC50 of test peptide).

As to APSEGAGSDVF [HER2/neu peptide, position 1076, 11 amino acids], the relative binding ratio was 0.0006 ratio (IC50 of standard / IC50 of test peptide).

Consider IPVAIKVL [HER2/neu peptide, position 748, 8 amino acids], for which the relative binding ratio is 0.012 ratio (IC50 of standard / IC50 of test peptide).

As to LPTNASLSFL (also called Her2/neu.65) [HER2/neu peptide, position 65, 10 amino acids], the relative binding ratio is 0.019 ratio (IC50 of standard / IC50 of test peptide).

For GPEADQCVACA [HER2/neu peptide, position 578, 11 amino acids], the relative binding ratio was < 0.0003 ratio (IC50 of standard / IC50 of test peptide).

As to GPASPLDSTF [HER2/neu peptide, position 995, 10 amino acids], the relative binding ratio was 0.051 ratio (IC50 of standard / IC50 of test peptide).

Take KPYDGIPAREI [HER2/neu peptide, position 921, 11 amino acids]: the relative binding ratio was 0.043 ratio (IC50 of standard / IC50 of test peptide).

Turning to APQPHPPPA [HER2/neu peptide, position 1204, 9 amino acids], the relative binding ratio is 0.0056 ratio (IC50 of standard / IC50 of test peptide).

For IPDGENVKI [HER2/neu peptide, position 740, 9 amino acids], the relative binding ratio is 0.0001 ratio (IC50 of standard / IC50 of test peptide).

For the molecule DPLNNTTPV [HER2/neu peptide, position 121, 9 amino acids], the relative binding ratio was 0.0002 ratio (IC50 of standard / IC50 of test peptide).

As to GPEADQCV [HER2/neu peptide, position 578, 8 amino acids], the relative binding ratio is < 0.0006 ratio (IC50 of standard / IC50 of test peptide).

For the molecule APQPHPPPAF [HER2/neu peptide, position 1204, 10 amino acids], the relative binding ratio is 0.053 ratio (IC50 of standard / IC50 of test peptide).

For EPLTPSGA [HER2/neu peptide, position 698, 8 amino acids], the relative binding ratio is < 0.0002 ratio (IC50 of standard / IC50 of test peptide).

GPKHSDCL [HER2/neu peptide, position 246, 8 amino acids]: the relative binding ratio is 0.0092 ratio (IC50 of standard / IC50 of test peptide).

Take CPSGVKPDLSY (also called Her2/neu.600) [HER2/neu peptide, position 600, 11 amino acids]: the relative binding ratio is 0.03 ratio (IC50 of standard / IC50 of test peptide).

Turning to LPDLSVFQNL [HER2/neu peptide, position 419, 10 amino acids], the relative binding ratio was 0.0003 ratio (IC50 of standard / IC50 of test peptide).

LPREYVNA [HER2/neu peptide, position 550, 8 amino acids]: the relative binding ratio was 0.0012 ratio (IC50 of standard / IC50 of test peptide).

Regarding KPCARVCYGL (also called Her2/neu.336) [HER2/neu peptide, position 336, 10 amino acids], the relative binding ratio was 0.037 ratio (IC50 of standard / IC50 of test peptide).

On to LPESFDGDPA [HER2/neu peptide, position 377, 10 amino acids], for which the relative binding ratio was 0.0001 ratio (IC50 of standard / IC50 of test peptide).

As for LPAARPAGA [HER2/neu peptide, position 1157, 9 amino acids], the relative binding ratio is 0.0027 ratio (IC50 of standard / IC50 of test peptide).

The values are drawn from patent publication US20040018971A1 (published 2004).
